Measured values taken from patent US10138280B2, “Polypeptides targeting glycosylated MUC2 proteins, methods of synthesis, their nucleic acids and uses thereof” (INSTITUT PASTEUR, priority 2011, dated 2018).

Key:
[1] = system: mucus layer of differentiated HT-29 MTX human epithelial colonic cells; assay: Staining of living HT-29 MTX cells, epifluorescent microscope; type: cell-based; conditions: living differentiated HT-29 MTX; 1 μg/mL, 2 h, serum-free media
Experimental: FIGS. 3A-3B. Cy5-MUB70 colonic mucus binding property. (FIG. 3A) HT-29 MTX living cells were incubated for 2 h with Cy5-MUB70 in a serum-free media. The resulting fluorescent signal (red) was visualized at the surface of the cell layer using an epifluorescent microscope. Z-projection, performed using ImageJ software, allowed 3D localization of Cy5-MUB70 fluorescence signal in the mucus layer. Bar is 10 μm (FIG. 3B) MPE and SHG imaging of the binding of Cy5-MUB70 to the human colonic mucus. […] Human tissue autofluorescence is detected in the same red channel as Cy5.
For dot blot assay, goat α-MUC2 pAbs (sc-13312, Santa Cruz), mouse α-MUC5ac (Abcam), mouse α-MUC5b mAbs (Abcam), mouse α-MUC6 mAbs (sc-33668, Santa Cruz), mouse α-lactoferrin mAbs (sc-52048, Santa Cruz) and rabbit α-FCGBP pAbs (Sigma-Aldrich) antibodies were used at a 1:100 dilution. Corresponding HRP-Conjugated antibodies were used at a 1:1000 dilution. For staining living HT-29 MTX cells and on human colon ex vivo model, Cy5-MUB70 was incubated (1 μg/mL) in a serum starved culture medium (DMEM and RPMI respectively) for two hours at 37° C. prior observation.
Fluorescent labeled tissues and cells were observed using a widefield epifluorescent microscope (Zeiss Definite Focus), laser-scanning confocal microscope (Leica TCS SP5) or a two-photons confocal microscope (Zeiss LSM710), as indicated. […]

[2] = molecular target: T1, human colonic mucus (Muc2) (Homo sapiens, UniProt Q02817); assay: Immunofluorescent staining of human mucus and fixed human colon samples; conditions: human colon mucus from ex vivo samples and fixed purified human mucus
T1 construct: Segments of human colon (ascending, descending and sigmoid colon) were obtained from fully informed patients undergoing surgery; from tissue; host or cells: healthy human colon segments (live explants, mucus collected from them, Carnoy- or formol-fixed sections)
Description: FIGS. 4A-4B. Cy5-MUB70 is specifically binding to the glycosylated moiety of Muc2 secreted in the colon mucus layer. (FIG. 4A) Immunodetection of Muc2, Muc5ac, Muc5b and Muc6 (dotblot analysis) on human mucus extracts eluted after a pulldown assay performed with biot-MUB70 on avidin conjugated beads (see Methods). Biotin is used as a negative control. Immunodetection of Muc2 (dotblot analysis) on deglycosylated mucus extracts eluted after a pulldown assay performed with biot-MUB70 on avidin conjugated beads. Non-deglycosylated mucus extract is used as a positive control. (FIG. 4B) Co-localization of Muc2 (green) and Cy5-MUB (blue) observed on fixed (Carnoy) human colon samples. Actin is stained in red (Phall.RRX). Observations are performed using a confocal microscope. Bars is 20 μm.
FIGS. 9A-9B. (FIG. 9A) Co-localization of Muc2 (green) and Cy5-MUB (blue) performed by immunofluorescent detection on human mucus extract collected on ex vivo tissues using an epifluorescent microscope. Bar is 50 μm. […]
For immunofluorescence assay mouse α-MUC2 pAbs (Santa Cruz sc-15334) was diluted 1:1000 and FITC-conjugated rabbit anti-mouse was diluted 1:2000. Host cells were detected with DAPI (nuclei, […]) or using Phalloidin-Rhodamine red X (RRX)-conjugated donkey anti-mouse antibodies (Jackson Immunoresearch Antibodies) as an actin marker (stained red); both were used at a final dilution of 1:1000. […]

B1: Cy5-MUB70: Cy5-labelled MUB70 polypeptide, labelled via Cy5 maleimide on N-terminal cysteine (conjugate)
peptide: CVHVQYIDGETDQMLRQDDLDGYTDETIPYSTAEGIKKFEGDGYELFKDNFPAGEKFDNDDTNDQFYTVIF
mucus layer binding on living cells [1]: binding the mucus layer at the surface of the cells | colocalization with Muc2 [2]: colocalization detection of Muc2 and Cy5-MUB70
